Measurements as given in the RNAGym collection of RNA variant scans (doi:10.7554/elife.90254).

B1: LINE1-mini (parent)
chain: GGCAGAGCUCAACACAGCGUGGCAAAGUGGCUGUGGCUAGACUGCC

Variants of: B1
Experiment: self-cleavage, relative activity (ratio to wild type); higher = more cleavage; in vitro, sequencing; the parent is a self-cleaving ribozyme

Variant | self-cleavage
C13U G19A | 0.16
A4G G29A | 0.36
G29A G30C | 1.52
U20C G44U | 0.14
G27U G33U | 0.07
U9G U34A | 0.04
U9G U34C | 0.06
C23G U38G | 0.02
G7A C18G | 0.19
C8U C10A | 0.03
U20C G30A | 0.45
C3U G27U | 0.41
U20A A24C | 0.28
C13G G21C | 0.33
G5U U9A | 0.36
U28A C31G | 0.13
G1A U34C | 0.14
C37U C42G | 0.03
C3A C45A | 0.48
G36C G40C | 0.08
U28A G33C | 0.03
G1C C23G | 0.08
A12U A39C | 0.11
G2U G29C | 0.04

Variant | self-cleavage
C15U U34A | 0.08
G19C G33C | 0.12
C13G U32A | 0.09
C31G C46A | 0.06
G2U C10U | 0.03
G5U U38G | 0.03
G2A G7C | 0.39
A16G U28G | 0.36
C3G G40C | 0.1
G30C C42A | 0.12
A25U G33A | 0.12
G5U G27U | 0.11
G1A G40C | 0.07
A12U G27A | 0.3
C45A C46G | 0.36
U34G G44C | 0.07
A39C | 0.26
A16G A39C | 0.12
G7C U34A | 0.05
U28A G40U | 0.12
A6U A24U | 1.6
U34C A41U | 0.06
U34A G44C | 0.04
A4U C46A | 0.16

Variant | self-cleavage
U20A C42G | 0.04
A4G U28G | 0.3
A16G C23U | 0.82
C37G A41G | 0.03
G5A A11G | 0.03
A16C C42U | 0.06
G7U C31G | 0.06
A12U C42U | 0.13
C18G A41U | 0.32
A14C A26G | 0.06
G2C G7U | 0.28
G7A A24C | 0.12
G21U G22A | 1.03
G2U G27C | 0.09
G1C A26U | 0.12
U9G C23U | 0.07
A6G U28A | 0.05
A24G U34A | 0.09
G30U U38A | 1
C13A C46U | 0.08
U20G C45A | 0.29
A12U A24C | 0.24
A6G C45A | 0.15
G17U G29U | 0.43

Variant | self-cleavage
C8U U28C | 0.2
A24G U38C | 0.71
A4U C13G | 0.1
A4C A24C | 0.09
C31G U38C | 0.07
G7A G27A | 0.06
G7C U32C | 0.07
G7A | 0.2
G7C | 0.13
A16U G17C | 0.2
C10A C42A | 0.02
A6G G29U | 0.09
A41C U43A | 0.11
A4U | 0.29
A6U C37G | 0.04
G1A A25G | 0.39
G7A G22U | 0.14
U38C C42G | 0.15
C42A G44U | 0.11
G36C C42G | 0.07
U20C G40A | 0.09
A39C C42G | 0.06
A39C C42U | 0.05
A6U U38A | 0.23

Variant | self-cleavage
C8U U43G | 0.12
C13G G44U | 0.06
A4G G22A | 1.25
C8A G29C | 0.14
G40U U43A | 0.08
A24C C37A | 0.03
U9C U34C | 0.04
A25G C37U | 0.06
G19U U38G | 0.02
A14U A26U | 0.53
U9A U34G | 0.08
A24G G29A | 0.8
G17U G22U | 0.67
C37A U38A | 0.04
U34G U38A | 0.3
U32G C37A | 0.09
G21C G22C | 0.57
C3U C15A | 0.08
C10A A26C | 0.04
G22U C45U | 1.25
G2A A26G | 0.6
G30A G33A | 0.1
C13U G44A | 0.1
U20A G33C | 0.04

Variant | self-cleavage
C23A A26U | 0.88
C18A G22C | 0.92
G21C U28G | 0.45
G7A A14U | 0.16
C18G C45G | 0.09
G17C G36A | 0.09
G35A G36C | 0.17
U20A C45A | 0.77
C15A A41C | 0.15
A14G U43A | 0.05
A16G A26U | 0.52
G5U U32C | 0.07
U20A C46U | 0.65
G1A C8G | 0.41
G27A G33A | 0.1
G17U G33U | 0.05
A14U A39C | 0.14
G2U C23A | 0.16
G7C A12C | 0.03
C13G A24U | 0.16
A4U C31U | 0.1
A11C U34C | 0.04
A11C U34A | 0.02
G35C G40A | 0.1

Variant | self-cleavage
A6C A26U | 0.77
C15U C42A | 0.08
C3A A25G | 0.29
C23A A25U | 0.78
C3U A12U | 0.35
U9C U20A | 0.04
C15U A16C | 0.13
G1U U38A | 0.13
G5C G29A | 0.05
A25U C31A | 0.13
G5A C42G | 0.07
A4U U28C | 0.32
C13U C42A | 0.09
C37G C46G | 0.17
U43C C46A | 0.11
G1U A11C | 0.03
C13A G27U | 0.08
A6G G7U | 0.05
G30C U43A | 0.06
G22U G35C | 0.22
G2U C37A | 0.03
A12G C46G | 0.05
A4U U32A | 0.06
